{"source": "patent US20250248992A1", "about": "“INNATE IMMUNE-ACTIVATING DRUG AND USE THEREOF” (LUODA BIOPHARMA (SUZHOU) CO., LTD., priority 2021, published 2025)", "system": "OVA-specific antibodies in serum", "experiment": "Immune adjuvant activity with ovalbumin (OVA), serum antibody ELISA", "format": "in vivo, mice", "details": "OVA alone, intramuscular, Day 0, 7, 14, serum Day 21"}
{"molecule": "ovalbumin (protein, UniProt P01012 2-386, looked up, Antigen ovalbumin (OVA) used for immunization of mice) Ovalbumin: GSIGAASMEFCFDVFKELKVHHANENIFYCPIAIMSALAMVYLGAKDSTRTQINKVVRFDKLPGFGDSIEAQCGTSVNVHSSLRDILNQITKPNDVYSFSLASRLYAEERYPILPEYLQCVKELYRGGLEPINFQTAADQARELINSWVESQTNGIIRNVLQPSSVDSQTAMVLVNAIVFKGLWEKAFKDEDTQAMPFRVTEQESKPVQMMYQIGLFRVASMASEKMKILELPFASGTMSMLVLLPDEVSGLEQLESIINFEKLTEWTSSNVMEERKIKVYLPRMKMEEKYNLTSVLMAMGITDVFSSSANLSGISSAESLKISQAVHAAHAEINEAGREVVGSAEAGVDAASVSEEFRADHPFLFCIKHIATNAVLFFGRCVSP", "values": [{"measurement": "protective humoral immune response after immunization", "result": "did not generate a protective humoral immune response"}]}
